Measurements from IntAct's records for PubMed 24530283.

Molecular target: fos_mouse Fos (UniProt P01101)
Sequence (P01101 whole entry): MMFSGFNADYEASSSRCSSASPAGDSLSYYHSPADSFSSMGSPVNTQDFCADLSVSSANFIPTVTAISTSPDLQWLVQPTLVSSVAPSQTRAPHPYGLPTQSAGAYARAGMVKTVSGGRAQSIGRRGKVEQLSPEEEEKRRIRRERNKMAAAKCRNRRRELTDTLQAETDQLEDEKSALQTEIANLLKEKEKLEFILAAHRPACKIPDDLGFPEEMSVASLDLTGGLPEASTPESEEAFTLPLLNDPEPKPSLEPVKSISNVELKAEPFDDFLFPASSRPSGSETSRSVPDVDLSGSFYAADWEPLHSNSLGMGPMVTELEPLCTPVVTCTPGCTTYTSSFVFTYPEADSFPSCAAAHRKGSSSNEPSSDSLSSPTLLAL

Chain of Transcription factor MafB (Mus musculus), P54841 V277N (P54841 whole entry V277N): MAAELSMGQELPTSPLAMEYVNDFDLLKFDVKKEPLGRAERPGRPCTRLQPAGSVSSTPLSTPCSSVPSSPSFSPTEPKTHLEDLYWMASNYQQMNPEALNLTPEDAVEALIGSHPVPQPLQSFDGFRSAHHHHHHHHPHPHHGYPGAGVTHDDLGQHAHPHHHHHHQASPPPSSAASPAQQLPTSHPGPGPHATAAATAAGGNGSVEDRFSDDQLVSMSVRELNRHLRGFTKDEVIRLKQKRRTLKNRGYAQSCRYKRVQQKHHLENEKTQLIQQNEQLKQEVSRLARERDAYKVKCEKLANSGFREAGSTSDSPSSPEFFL
Chain of Transcription factor MafB (Mus musculus), P54841 E269R (P54841 whole entry E269R): as the sequence (P54841 whole entry V277N) above, with E269R, N277V counted along it

effect of a mutation on the interaction | Substance
disrupting interaction strength | Transcription factor MafB (Mus musculus), P54841 V277N
increasing interaction strength | Transcription factor MafB (Mus musculus), P54841 E269R
